In the data set the test system is MS2 coat protein. Nature of the data set: apparent KD of MS2 coat protein; designed switch direction (-1 OFF switch, 1 ON switch): 1; higher = weaker reporter binding. The gist of the method: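 RNA switches sharing common flanks were transcribed by stalled E. coli RNA polymerase on Illumina chips. A doubling series of SNAP-549-labelled MS2 coat protein, from 0.7 or 1.5 nM to 3 µM, was applied in Tris-HCl pH 7.5 buffer with KCl, MgCl2, BSA, DTT, tRNA and Tween-20. Each step lasted 0.8–1.5 h at the bottom of the series and 10–20 min at the top. Normalised cluster fluorescence was curve-fitted, giving apparent KD as the per-design median over clusters.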

Where [1] appears, read: Eterna round: R95, input ligand: FMN 200 uM.
[2] abbreviates: Eterna round: R95, input ligand: microRNA oligo, concentration not stated.
Setting [3] is: Eterna round: R95, input ligand: none.
[4] abbreviates: input ligand: microRNA oligo, concentration not stated.

Turning to “CGUCCGGCCUGUGCUGGCCGGUAGCAUGUACAUGAGGAUCACCCAUGUUCAUGUGCAGGCUUUUUGCUCGUCUUGUG [salish99_mir208a_r3_007] (puzzle: Sensor for hsa-mir-208a)”, the “apparent KD of MS2 coat protein” value is, setting by setting: under setting [1], 34 nM; under setting [2], 12.3 nM; under setting [3], 33.8 nM.

Consider “AUUAUUUAUGCAGGAUAUGAUUAACAUGAGGAUCACCCAUGUGGUGUUGUGAGUAAGGAGAGUGAUCAGAAGGGCAUUGUUUUU [JMF's solution 46] (Eterna round: R96, puzzle: Same State NG 2)”, for which the “apparent KD of MS2 coat protein” value amounted to 1450 nM (input ligand: FMN 200 uM), 473 nM under setting [4] and 475 nM (input ligand: none).

Turning to “AAGAAAGUUUACGAGGAUAUGUUCCGCAUAACAUGAGGAUCACCCAUGUGAACAAGAAAGGCGACGCAGAAGGCGUGAGCAAAAG [Mat - Same State 2 - Mod of UCT - D97] (puzzle: Same State 2)”, the “apparent KD of MS2 coat protein” value amounted to 105 nM under setting [1], 199 nM under setting [2] and 412 nM under setting [3].

On to “CUGCUCGGGUGAGGAUAUGCCGCCGUUUCGGCUGCAGAAGGUGCUACGUUACAUGAGGAUCACCCAUGUCUCUGUUGUUUCGUU [salish99_SSNG1_r04_965] (Eterna round: R96, puzzle: Same State NG 1)”, for which the “apparent KD of MS2 coat protein” value amounted to 72.1 nM (input ligand: FMN 200 uM), 42.8 nM under setting [4] and 62.2 nM (input ligand: none).

“ACGCAGCUGGGUAAGGAUAUCGGUGGUAAAACAUGAGGAUCACCCAUGUCCGAAGCUCGGACUUCCGAGAAGGUGCCCGGCUGCG [Soinraesar Omei Mod 6] (puzzle: Same State 2)”: the “apparent KD of MS2 coat protein” value runs as follows: under setting [1], 23.8 nM; under setting [2], 222 nM; under setting [3], 218 nM.

As to “GCGGAACCUGACAUGAGGAUCACCCAUGUUCCGGAAACGGCACAGGAUAUCUGUCCGAAAAGGUCAGAGAAGGGUGAAAACCGC [Fiskers NG3ss - 96] (Eterna round: R96, puzzle: Same State NG 3)”, the “apparent KD of MS2 coat protein” value is 269 nM (input ligand: FMN 200 uM), 714 nM under setting [4] and 719 nM (input ligand: none).

For the sequence “UAGUGCAUUAGAGGAUAUUCUUACGGAAACGUUAAGACAUGAGGAUCACCCAUGUUGUCACAUGGGAAGAAGGCUGAUGUGCUA [Omei SS(NG)2 Bv4] (Eterna round: R96, puzzle: Same State NG 2)”, the “apparent KD of MS2 coat protein” value runs as follows: (input ligand: FMN 200 uM) 63.6 nM; under setting [4], 390 nM; (input ligand: none) 835 nM.

Take “GGAGCCGGCACCGAGGAUAUUCGUAUUAAAACAUGAGGAUCACCCAUGUAGGCCAGAAGGCCUUGGGAGAAGGCGGAUCGGCUCG [Xeonanis - 2] (puzzle: Same State 2)”: the “apparent KD of MS2 coat protein” value runs as follows: under setting [1], 12.4 nM; under setting [2], 65.2 nM; under setting [3], 106 nM.

In the case of “AUUGCUUACGCAGGAUAUGAUGCGAAAAUUGCGUCAGAAGGGUGAAGUGACUCGUUGCAACAAGACAUGAGGAUCACCCAUGUC [SameState NG1 #92] (Eterna round: R96, puzzle: Same State NG 1)”, the “apparent KD of MS2 coat protein” value came out at 135 nM (input ligand: FMN 200 uM), 116 nM under setting [4] and 199 nM (input ligand: none).

“UGUUAACAUGAGGAUCACCCAUGUCAAAUGAAUGAAGGAUAUGGAAAGUAAUAAGAUGAACUAGAAGGUCAAGAUG [Altered State 1-22 - Jieux - Same State 1] (puzzle: Same State 1)”: the “apparent KD of MS2 coat protein” value turned out to be 48.4 nM under setting [1], 51.9 nM under setting [2] and 49.8 nM under setting [3].

Regarding “GGUCCAGCCUGAGCUGGACUACAGCAUGUACAUGAGGAUCACCCAUGUCAUGUACAUGUUUUUUGUUUGUCUUAAAA [Sensorship 9 - Jieux - Sensor for hsa-mir-208a] (puzzle: Sensor for hsa-mir-208a)”, the “apparent KD of MS2 coat protein” value by setting is: under setting [1], 69 nM; under setting [2], 70.1 nM; under setting [3], 99.4 nM.

On to “AGGCUCAGACGAGGAUAUGGUCAUGGCGCUUCGGCGCAUACAUGAGGAUCACCCAUGUAGGGUGAUCAGAAGGCGUCUGAGCCA [SSNG2/9-A1] (Eterna round: R96, puzzle: Same State NG 2)”, for which the “apparent KD of MS2 coat protein” value by setting is: (input ligand: FMN 200 uM) 76.8 nM; under setting [4], 255 nM; (input ligand: none) 365 nM.

On to “CAUCAUGCGUCUAAGGAUAUGUCUCACAAGACAUGAGGAUCACCCAUGUAGAAUAAAUAAAUGAUGCAGAAGGUGGAGCGCAUGC [Erzausis] (Eterna round: R96, puzzle: Same State 2)”, for which the “apparent KD of MS2 coat protein” value under setting [4] stood at 253 nM.

Take “GUGGUCAGACAUGAGGAUCACCCAUGUGGAAUAAAUAAGGAGAAGGAUAUCUAAUAUAGGAUAUAAGAGAAGGUUUGGUUGGUG (Eterna round: R96, puzzle: Same State NG 3)”: the “apparent KD of MS2 coat protein” value under setting [4] came out at 63.2 nM.

“GAGGAACAUGAGGAUCACCCAUGUGGGAUGGGACAAGGAUAUGUAGGUAGAGGAGAAGAGACAGAAGGUGUAGGAG [JR_SS1_Sub052] (puzzle: Same State 1)”: the “apparent KD of MS2 coat protein” value reads like this: under setting [1], 349 nM; under setting [2], 232 nM; under setting [3], 660 nM.

Regarding “CCAUAACAGUGAGGAUAUUGUUGCGAUAAGUGACGAGAAGGCAUUUAUGUGAAAUAAACAUACAUGAGGAUCACCCAUGUUGUA [Omei SS(NG)1 Bv4] (Eterna round: R96, puzzle: Same State NG 1)”, the “apparent KD of MS2 coat protein” value reads like this: (input ligand: FMN 200 uM) 17.3 nM; under setting [4], 16.7 nM; (input ligand: none) 22.3 nM.

For “UUAUUAAUUACAUGAGGAUCACCCAUGUUUUUAUGUCAGAGACAGGAUAUAGAAGUCUCGUUUUACUAGAAGGGUCAUUAUAAG [JR_SSNG3_Sub015] (Eterna round: R96, puzzle: Same State NG 3)”, the “apparent KD of MS2 coat protein” value (input ligand: FMN 200 uM) came to 18.6 nM, the “apparent KD of MS2 coat protein” value under setting [4] stood at 16.4 nM and the “apparent KD of MS2 coat protein” value (input ligand: none) stood at 19.2 nM.

As for “GCUAGAAUUAAUGCUAACAUGAGGAUCACCCAUGUAUGUUGGCAGGAUAUCGUUUGCAAAGCAAACGAGAAGGGCCAUACUAGC [Mat - Same State NG 3 - JL Mod - D25] (Eterna round: R96, puzzle: Same State NG 3)”, the “apparent KD of MS2 coat protein” value worked out at 8.26 nM (input ligand: FMN 200 uM), 27.3 nM under setting [4] and 21.3 nM (input ligand: none).

As for “AGUCCAGCCUGAGCUGGACAAAAGCAUGUACAUGAGGAUCACCCAUGUUCAUGUGCAAGCUUUUUGCUCGUCUUAAA [Zipper 52 - 4] (puzzle: Sensor for hsa-mir-208a)”, the “apparent KD of MS2 coat protein” value turned out to be 64.9 nM under setting [1], 11.4 nM under setting [2] and 71.2 nM under setting [3].

Turning to “AUAAACAGGCUAGGAUAUCCGGAAACUACAGGGCACAACCCUAUAGACAUGAGGAUCACCCAUGUGGAGAAGGAGCCACAUGAA [Ceesis] (Eterna round: R96, puzzle: Same State NG 2)”, the “apparent KD of MS2 coat protein” value reads like this: (input ligand: FMN 200 uM) 40.6 nM; under setting [4], 156 nM; (input ligand: none) 195 nM.

As to “UGGAUCUAGGCUUGCCUGGGUCCAUGCUGACAUGAGGAUCACCCAUGUGCAUUCUAUAAGCUUUUUGUUUGUCAGCU (puzzle: Sensor for hsa-mir-208a)”, the “apparent KD of MS2 coat protein” value is, setting by setting: under setting [1], 360 nM; under setting [2], 25.1 nM; under setting [3], 411 nM.

With “CGUUCUUACUCAGGACGGAGAGUAGAGGAACAUGAGGAUCACCCAUGUAUGAGCUUUUUGCUCGUGAUUAACAGUAG [JR_SHM208a_Sub013] (Eterna round: R96, puzzle: Sensor for hsa-mir-208a)”, the “apparent KD of MS2 coat protein” value reads like this: (input ligand: FMN 200 uM) 103 nM; under setting [4], 55.5 nM; (input ligand: none) 86.8 nM.

For “GUUACAUGAGGAUCACCCAUGUAUGUGUGGGAGUAAGUGUCUUAGGAUAUCUAUGAUAUAAUUUAAGAGAAGGAAGAUUGUUGU [JMF's solution 75] (Eterna round: R96, puzzle: Same State NG 3)”, the “apparent KD of MS2 coat protein” value (input ligand: FMN 200 uM) turned out to be 103 nM, the “apparent KD of MS2 coat protein” value under setting [4] is 69.9 nM and the “apparent KD of MS2 coat protein” value (input ligand: none) is 136 nM.

For “UGUCGUUGCAGAGGAUAUGGGAACUCGAUGCCGUAAGGUAUCAUAACAUGAGGAUCACCCAUGUCCCAGAAGGCUGCAGCAAGC [Leatve Mod] (Eterna round: R96, puzzle: Same State NG 2)”, the “apparent KD of MS2 coat protein” value (input ligand: FMN 200 uM) is 29.7 nM, the “apparent KD of MS2 coat protein” value under setting [4] is 94 nM and the “apparent KD of MS2 coat protein” value (input ligand: none) came to 235 nM.

Turning to “AGCUUACAUGAGGAUCACCCAUGUUUUAGCCAGACAGGAUAUGGGUAUCUAAAACACAACCCAGAAGGGUCAAAAC [Usveriri] (puzzle: Same State 1)”, the “apparent KD of MS2 coat protein” value was 57.5 nM under setting [1], 233 nM under setting [2] and 489 nM under setting [3].

With “UGUUGUAUUACAGGAUAUCUAUUGUUUUUAAUUAGAGAAGGGUAUUCACAUGAGGAUCACCCAUGUAUAUACGAGGAAGUUGUG [JMF's solution 81] (Eterna round: R96, puzzle: Same State NG 1)”, the “apparent KD of MS2 coat protein” value under setting [4] worked out at 37.6 nM.

Take “GGCGAACAGGCUAACAUGAGGAUCACCCAUGUGGACUCAUGGUAGGAUAUCGGGAAGGAGGAAACCGAGAAGGGCCGGUGAGCC [AK SSNG3-V2-48] (Eterna round: R96, puzzle: Same State NG 3)”: the “apparent KD of MS2 coat protein” value runs as follows: (input ligand: FMN 200 uM) 14.3 nM; under setting [4], 20 nM; (input ligand: none) 716 nM.

As to “CGCCAGAGAACAGGAUAUGGGCCGCGGCCUAUGGGCUGCUAACUCACAUGAGGAUCACCCAUGUCCCAGAAGGGUUCCUGGCGG [Xediat] (Eterna round: R96, puzzle: Same State NG 2)”, the “apparent KD of MS2 coat protein” value by setting is: (input ligand: FMN 200 uM) 472 nM; under setting [4], 23.1 nM; (input ligand: none) 262 nM.

Values taken from the supplement of paper PMC9170038.
